According to PMC9482650, “Quantitative fragmentomics allow affinity mapping of interactomes” (Nature Communications, 2022):

T1: ARHGAP21, Q5T5U3
T1 sequence (Q5T5U3 45-169, limits assumed, looked up): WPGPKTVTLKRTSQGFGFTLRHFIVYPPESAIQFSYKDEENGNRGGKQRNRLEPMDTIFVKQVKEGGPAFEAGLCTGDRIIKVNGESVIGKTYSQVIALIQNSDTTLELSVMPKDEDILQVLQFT

T2: DVL1, O14640
T2 sequence (O14640 246-333, limits assumed, looked up): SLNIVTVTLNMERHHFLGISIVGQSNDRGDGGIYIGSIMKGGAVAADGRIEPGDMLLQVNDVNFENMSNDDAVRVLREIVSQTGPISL

T3: GRIP1_1, Q9Y3R0
T3 sequence (Q9Y3R0 48-146, limits assumed, looked up): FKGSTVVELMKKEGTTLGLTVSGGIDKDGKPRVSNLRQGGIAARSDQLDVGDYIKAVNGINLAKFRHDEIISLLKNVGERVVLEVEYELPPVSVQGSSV

T4: MLLT4, P55196
T4 sequence (P55196 1002-1103, limits assumed, looked up): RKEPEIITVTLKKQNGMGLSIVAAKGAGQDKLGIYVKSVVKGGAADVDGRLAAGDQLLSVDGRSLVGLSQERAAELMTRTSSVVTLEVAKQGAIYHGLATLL

T5: MPDZ_13, O75970
T5 sequence (O75970 1982-2070, limits assumed, looked up): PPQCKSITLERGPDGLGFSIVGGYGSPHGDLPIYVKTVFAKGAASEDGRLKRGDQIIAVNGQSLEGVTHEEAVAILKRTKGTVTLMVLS

T6: MPDZ_6, O75970
T6 sequence (O75970 1003-1099, limits assumed, looked up): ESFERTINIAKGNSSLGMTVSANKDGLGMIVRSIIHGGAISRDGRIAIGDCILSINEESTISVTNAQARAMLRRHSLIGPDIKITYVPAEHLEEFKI

T7: NHERF1_1, O14745
T7 sequence (O14745 9-104, limits assumed, looked up): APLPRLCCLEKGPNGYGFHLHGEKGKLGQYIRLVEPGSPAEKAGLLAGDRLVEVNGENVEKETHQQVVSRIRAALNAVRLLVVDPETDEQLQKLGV

T8: PARD6B, Q9BYG5
T8 sequence (Q9BYG5 152-260, limits assumed, looked up): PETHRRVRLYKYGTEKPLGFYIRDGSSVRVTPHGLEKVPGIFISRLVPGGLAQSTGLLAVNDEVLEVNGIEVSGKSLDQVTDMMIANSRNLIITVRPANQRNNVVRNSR

T9: PDZD4, Q76G19
T9 sequence (Q76G19 125-224, limits assumed, looked up): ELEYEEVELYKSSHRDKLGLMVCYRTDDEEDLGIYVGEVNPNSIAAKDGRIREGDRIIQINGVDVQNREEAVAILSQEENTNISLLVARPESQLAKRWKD

T10: PDZD8, Q8NEN9
T10 sequence (Q8NEN9 361-459, limits assumed, looked up): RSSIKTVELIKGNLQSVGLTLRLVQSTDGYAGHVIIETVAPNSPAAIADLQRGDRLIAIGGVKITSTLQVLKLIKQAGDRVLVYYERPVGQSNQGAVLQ

T11: PTPN13_5, Q12923
T11 sequence (Q12923 1877-1975, limits assumed, looked up): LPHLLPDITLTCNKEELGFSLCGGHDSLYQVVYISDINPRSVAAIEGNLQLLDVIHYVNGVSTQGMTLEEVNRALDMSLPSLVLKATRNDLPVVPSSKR

T12: PTPN4, P29074
T12 sequence (P29074 512-599, limits assumed, looked up): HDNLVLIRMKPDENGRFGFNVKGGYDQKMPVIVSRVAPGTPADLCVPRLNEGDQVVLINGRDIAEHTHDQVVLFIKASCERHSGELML

T13: SHROOM4, Q9ULL8
T13 sequence (Q9ULL8 5-102, limits assumed, looked up): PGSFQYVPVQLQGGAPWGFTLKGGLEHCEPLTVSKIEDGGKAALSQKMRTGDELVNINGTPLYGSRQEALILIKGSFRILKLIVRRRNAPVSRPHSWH

T14: TJP3_1, O95049
T14 sequence (O95049 6-103, limits assumed, looked up): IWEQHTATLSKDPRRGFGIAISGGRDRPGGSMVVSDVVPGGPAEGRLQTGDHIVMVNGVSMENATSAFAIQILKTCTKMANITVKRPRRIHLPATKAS

T15: USH1C_2, Q9Y6N9
T15 sequence (Q9Y6N9 206-303, limits assumed, looked up): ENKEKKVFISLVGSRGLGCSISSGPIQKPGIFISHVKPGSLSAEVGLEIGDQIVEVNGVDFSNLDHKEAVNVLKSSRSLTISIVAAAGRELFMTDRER


Tests used:
Test in all cases: holdup assay
Design in all cases: key: below the threshold = too weak to quantify, mostly under pKd 3.1 to 4
Conditions in all cases: plain residues with an end cap or a label only (N-terminal biotin on a linker: ttds)
[1] = molecular target: T1, ARHGAP21, Q5T5U3
[2] = molecular target: DLG5_2, Q8TDM6
Chain of DLG5_2, Q8TDM6 (Q8TDM6 714-800): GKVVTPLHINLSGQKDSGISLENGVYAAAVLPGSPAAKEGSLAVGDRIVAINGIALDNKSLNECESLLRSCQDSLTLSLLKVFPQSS

[3] = molecular target: T2, DVL1, O14640
[4] = molecular target: GOPC, Q9HD26
[5] = molecular target: T3, GRIP1_1, Q9Y3R0
[6] = molecular target: IL16_2, Q14005
Chain of IL16_2, Q14005 (Q14005 350-450): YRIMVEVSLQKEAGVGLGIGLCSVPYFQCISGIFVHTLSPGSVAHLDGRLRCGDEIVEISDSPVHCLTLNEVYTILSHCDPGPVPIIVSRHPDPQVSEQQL

[7] = molecular target: MAGI1_4, Q96QZ7
Chain of MAGI1_4, Q96QZ7 (Q96QZ7 other isoform, or with tags, fused parts or gaps): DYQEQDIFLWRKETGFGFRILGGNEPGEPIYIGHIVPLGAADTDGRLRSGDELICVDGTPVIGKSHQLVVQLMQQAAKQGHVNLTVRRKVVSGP

[8] = molecular target: MAGI3_5, Q5TCQ9
Chain of MAGI3_5, Q5TCQ9 (Q5TCQ9 847-941): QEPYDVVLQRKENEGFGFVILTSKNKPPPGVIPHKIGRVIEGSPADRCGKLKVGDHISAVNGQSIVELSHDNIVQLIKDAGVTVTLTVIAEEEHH

[9] = molecular target: MAGIX, Q9H6Y5
Chain of MAGIX, Q9H6Y5 (Q9H6Y5 118-211): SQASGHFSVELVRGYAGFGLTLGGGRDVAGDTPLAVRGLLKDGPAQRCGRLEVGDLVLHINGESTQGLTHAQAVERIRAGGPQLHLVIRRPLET

[10] = molecular target: T4, MLLT4, P55196
[11] = molecular target: T5, MPDZ_13, O75970
[12] = molecular target: T6, MPDZ_6, O75970
[13] = molecular target: T7, NHERF1_1, O14745
[14] = molecular target: T8, PARD6B, Q9BYG5
[15] = molecular target: T9, PDZD4, Q76G19
[16] = molecular target: T10, PDZD8, Q8NEN9
[17] = molecular target: T11, PTPN13_5, Q12923
[18] = molecular target: T12, PTPN4, P29074
[19] = molecular target: SDCBP_1, O00560
Chain of SDCBP_1, O00560 (O00560 111-198): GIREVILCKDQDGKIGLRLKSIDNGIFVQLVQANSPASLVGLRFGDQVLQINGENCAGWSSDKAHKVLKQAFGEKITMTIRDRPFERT

[20] = molecular target: T13, SHROOM4, Q9ULL8
[21] = molecular target: T14, TJP3_1, O95049
[22] = molecular target: T15, USH1C_2, Q9Y6N9

Binder	pKd [1]	pKd [2]	pKd [3]	pKd [4]	pKd [5]	pKd [6]	pKd [7]	pKd [8]	pKd [9]	pKd [10]	pKd [11]	pKd [12]	pKd [13]	pKd [14]	pKd [15]	pKd [16]	pKd [17]	pKd [18]	pKd [19]	pKd [20]	also measured
MERLRVETDV [ARHGEF16, Q5VV41]	3.63	below the threshold	below the threshold	3.84	below the threshold	below the threshold	below the threshold	below the threshold	below the threshold	below the threshold	below the threshold	below the threshold	below the threshold	below the threshold	below the threshold	below the threshold	below the threshold	4.25	below the threshold	4.06	pKd [21]: below the threshold; pKd [22]: below the threshold
HIVEALETDV [PBK, Q96KB5]	3.91	below the threshold	below the threshold	below the threshold	below the threshold	below the threshold	4.34	below the threshold	below the threshold	below the threshold	below the threshold	below the threshold	below the threshold	below the threshold	below the threshold	below the threshold	below the threshold	below the threshold	below the threshold	below the threshold	pKd [21]: below the threshold; pKd [22]: below the threshold
SEKHFRETEV [HTLV1-TAX1, P03409]	below the threshold	5.06	below the threshold	below the threshold	below the threshold	below the threshold	4.28	4.86	below the threshold	4.08	4.77	below the threshold	below the threshold	below the threshold	below the threshold	below the threshold	below the threshold	4.77	below the threshold	below the threshold	pKd [21]: below the threshold; pKd [22]: below the threshold
IQREDQETAV [DGKZ, Q13574]	below the threshold	below the threshold	below the threshold	3.86	below the threshold	below the threshold	below the threshold	4.51	below the threshold	below the threshold	below the threshold	below the threshold	below the threshold	below the threshold	below the threshold	below the threshold	below the threshold	4.8	below the threshold	4.76	pKd [21]: below the threshold; pKd [22]: below the threshold
